Reference: patent US20240018502A1

How the values were obtained:
Assay in all cases: cell-based or functional assay
[1] = biological target: human complement protein C3 (human) (UniProt P01024)
[2] = biological target: proteinase-activated receptor 2 (PAR-2) (UniProt P55085)
[3] = biological target: complement protein C3 of cynomolgus monkey plasma (cynomolgus monkey)

Chain of proteinase-activated receptor 2 (PAR-2) (P55085 37-397 limits assumed): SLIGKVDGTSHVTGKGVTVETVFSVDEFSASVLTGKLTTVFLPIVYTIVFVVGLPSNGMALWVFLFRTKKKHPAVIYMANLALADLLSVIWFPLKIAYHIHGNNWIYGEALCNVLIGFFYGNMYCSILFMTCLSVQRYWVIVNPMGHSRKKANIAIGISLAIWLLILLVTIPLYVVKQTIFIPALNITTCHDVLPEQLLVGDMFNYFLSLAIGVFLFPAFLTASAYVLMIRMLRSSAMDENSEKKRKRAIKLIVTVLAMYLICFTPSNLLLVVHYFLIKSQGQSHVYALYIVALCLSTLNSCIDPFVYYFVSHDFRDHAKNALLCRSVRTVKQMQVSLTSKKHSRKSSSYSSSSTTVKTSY
Chain of human complement protein C3 (human) (P01024 23-667, chain 1 of 2): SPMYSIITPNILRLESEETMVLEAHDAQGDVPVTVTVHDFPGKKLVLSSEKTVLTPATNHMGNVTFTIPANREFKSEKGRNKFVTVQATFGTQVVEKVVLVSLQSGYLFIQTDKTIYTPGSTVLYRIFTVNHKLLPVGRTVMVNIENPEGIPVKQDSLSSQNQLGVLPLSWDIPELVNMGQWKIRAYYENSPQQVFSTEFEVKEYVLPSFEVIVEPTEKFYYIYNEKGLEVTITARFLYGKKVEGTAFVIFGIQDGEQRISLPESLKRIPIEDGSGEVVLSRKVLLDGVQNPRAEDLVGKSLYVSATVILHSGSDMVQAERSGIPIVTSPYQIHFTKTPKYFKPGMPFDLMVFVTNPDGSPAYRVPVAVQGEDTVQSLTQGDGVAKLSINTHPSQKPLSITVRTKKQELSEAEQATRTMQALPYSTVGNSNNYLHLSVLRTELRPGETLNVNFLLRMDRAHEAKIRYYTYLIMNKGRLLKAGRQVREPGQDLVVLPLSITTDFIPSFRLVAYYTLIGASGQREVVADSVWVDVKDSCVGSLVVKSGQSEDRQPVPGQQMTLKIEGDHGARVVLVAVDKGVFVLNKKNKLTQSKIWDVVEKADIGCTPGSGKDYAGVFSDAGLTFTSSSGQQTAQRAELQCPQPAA
Chain of human complement protein C3 (human) (P01024 672-1663, chain 2 of 2): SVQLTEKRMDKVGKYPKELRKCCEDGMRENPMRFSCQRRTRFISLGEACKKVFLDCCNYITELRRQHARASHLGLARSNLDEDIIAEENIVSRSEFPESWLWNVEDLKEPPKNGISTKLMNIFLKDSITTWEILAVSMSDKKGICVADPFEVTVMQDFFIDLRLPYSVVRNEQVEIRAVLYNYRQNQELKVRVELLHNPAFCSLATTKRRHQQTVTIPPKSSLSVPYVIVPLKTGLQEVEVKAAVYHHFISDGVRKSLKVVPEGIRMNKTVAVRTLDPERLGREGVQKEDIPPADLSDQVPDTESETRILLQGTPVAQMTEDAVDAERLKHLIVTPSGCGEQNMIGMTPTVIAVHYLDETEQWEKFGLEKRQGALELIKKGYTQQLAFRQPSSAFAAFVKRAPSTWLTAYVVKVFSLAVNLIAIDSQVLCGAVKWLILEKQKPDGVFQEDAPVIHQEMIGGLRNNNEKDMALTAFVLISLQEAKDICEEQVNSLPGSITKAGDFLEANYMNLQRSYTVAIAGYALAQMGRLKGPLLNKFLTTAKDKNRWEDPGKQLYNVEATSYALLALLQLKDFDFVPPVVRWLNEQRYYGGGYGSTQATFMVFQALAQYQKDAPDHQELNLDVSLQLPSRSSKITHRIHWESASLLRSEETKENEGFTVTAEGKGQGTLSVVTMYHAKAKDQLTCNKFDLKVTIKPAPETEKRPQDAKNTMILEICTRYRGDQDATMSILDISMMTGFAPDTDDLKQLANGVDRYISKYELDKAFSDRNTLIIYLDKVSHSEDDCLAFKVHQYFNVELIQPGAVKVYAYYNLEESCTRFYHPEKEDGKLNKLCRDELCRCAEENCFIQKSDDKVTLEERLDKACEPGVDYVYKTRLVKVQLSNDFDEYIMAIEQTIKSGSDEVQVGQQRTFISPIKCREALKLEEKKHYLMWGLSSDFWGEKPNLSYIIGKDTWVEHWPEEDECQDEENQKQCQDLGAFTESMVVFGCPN

EC50 (nM), cleavage of purified hC3 in vitro [1] [nM] | PAR-2 Cell Based Assay ED50 [2] [nM] | % Inhibition of CH50, human citrated plasma, 3.2 nM test article [1] [%] | % Inhibition of CH50, human citrated plasma, 16 nM test article [1] [%] | % Inhibition of CH50, human citrated plasma, 80 nM test article [1] [%] | % Inhibition of CH50, human citrated plasma, 400 nM test article [1] [%] | % Inhibition of CH50, human citrated plasma, 2000 nM test article [1] [%] | C3 destruction ED50 (mg/kg), in vivo, intravenous injection, cynomolgus monkey [3] [mg/kg] | Binder
2.87 | 150 |  |  |  |  |  |  | Q38H/I41A/D60bV/F60eR/Y60gW/D96I/F97N/T98G/F99L/C122S/G151N/Q175L/Q192D (enzyme) VVGGTDADEGEWPWQVSLHALGHGHACGASLISPNWLVSAAHCYIDVRGRRWSDPTQWTAFLGLHDQSQRSAPGVQERRLKRIISHPFFNINGLDYDIALLELEKPAEYSSMVRPISLPDASHVFPAGKAIWVTGWGHTQYGGTNALILQKGEIRVINQTTCENLLPQLITPRMMCVGFLSGGVDSCDGDSGGPLSSVEADGRIFQAGVVSWGDGCAQRNKPGVYTRLPLFRDWIKENTGV
6.86 |  | -5 | 1 | 40 | 84 | 92 | 0.07 | Q38H/I41S/D60bT/F60eS/Y60gW/D96K/F97G/ins97aV/T98P/F99L/C122S/G151H/Q175L/Q192D (enzyme) VVGGTDADEGEWPWQVSLHALGHGHSCGASLISPNWLVSAAHCYIDTRGSRWSDPTQWTAFLGLHDQSQRSAPGVQERRLKRIISHPFFNKGVPLDYDIALLELEKPAEYSSMVRPISLPDASHVFPAGKAIWVTGWGHTQYGGTHALILQKGEIRVINQTTCENLLPQLITPRMMCVGFLSGGVDSCDGDSGGPLSSVEADGRIFQAGVVSWGDGCAQRNKPGVYTRLPLFRDWIKENTGV
 | 1900 |  |  |  |  |  | 0.2 | Q38H/I41A/D60bT/F60eK/Y60gW/F97T/ins97aE/T98G/F99L/C122S/G151N/Q175L/Q192D (enzyme) VVGGTDADEGEWPWQVSLHALGHGHACGASLISPNWLVSAAHCYIDTRGKRWSDPTQWTAFLGLHDQSQRSAPGVQERRLKRIISHPFFNDTEGLDYDIALLELEKPAEYSSMVRPISLPDASHVFPAGKAIWVTGWGHTQYGGTNALILQKGEIRVINQTTCENLLPQLITPRMMCVGFLSGGVDSCDGDSGGPLSSVEADGRIFQAGVVSWGDGCAQRNKPGVYTRLPLFRDWIKENTGV

Second part, the binder before the results:

Binder | EC50 (nM), cleavage of purified hC3 in vitro [1] [nM] | PAR-2 Cell Based Assay ED50 [2] [nM] | % Inhibition of CH50, human citrated plasma, 3.2 nM test article [1] [%] | % Inhibition of CH50, human citrated plasma, 16 nM test article [1] [%] | % Inhibition of CH50, human citrated plasma, 80 nM test article [1] [%] | % Inhibition of CH50, human citrated plasma, 400 nM test article [1] [%] | % Inhibition of CH50, human citrated plasma, 2000 nM test article [1] [%] | C3 destruction ED50 (mg/kg), in vivo, intravenous injection, cynomolgus monkey [3] [mg/kg]
Q38H/I41A/D60bV/F60eR/Y60gW/D96I/F97Y/ins97aN/T98G/F99L/C122S/G151N/Q175L/Q192D (enzyme) VVGGTDADEGEWPWQVSLHALGHGHACGASLISPNWLVSAAHCYIDVRGRRWSDPTQWTAFLGLHDQSQRSAPGVQERRLKRIISHPFFNIYNGLDYDIALLELEKPAEYSSMVRPISLPDASHVFPAGKAIWVTGWGHTQYGGTNALILQKGEIRVINQTTCENLLPQLITPRMMCVGFLSGGVDSCDGDSGGPLSSVEADGRIFQAGVVSWGDGCAQRNKPGVYTRLPLFRDWIKENTGV |  | 450 |  |  |  |  |  | 0.06
Q38H/I41S/D60bT/F60eS/Y60gW/F97D/ins97aV/T98P/F99L/C122S/G151H/Q175L/Q192E (enzyme) VVGGTDADEGEWPWQVSLHALGHGHSCGASLISPNWLVSAAHCYIDTRGSRWSDPTQWTAFLGLHDQSQRSAPGVQERRLKRIISHPFFNDDVPLDYDIALLELEKPAEYSSMVRPISLPDASHVFPAGKAIWVTGWGHTQYGGTHALILQKGEIRVINQTTCENLLPQLITPRMMCVGFLSGGVDSCEGDSGGPLSSVEADGRIFQAGVVSWGDGCAQRNKPGVYTRLPLFRDWIKENTGV |  | 1800 |  |  |  |  |  | 0.1
Q38H/I41A/D60bV/F60eR/Y60gW/F97T/ins97aE/T98G/F99L/C122S/G151N/Q175L/Q192D (enzyme) VVGGTDADEGEWPWQVSLHALGHGHACGASLISPNWLVSAAHCYIDVRGRRWSDPTQWTAFLGLHDQSQRSAPGVQERRLKRIISHPFFNDTEGLDYDIALLELEKPAEYSSMVRPISLPDASHVFPAGKAIWVTGWGHTQYGGTNALILQKGEIRVINQTTCENLLPQLITPRMMCVGFLSGGVDSCDGDSGGPLSSVEADGRIFQAGVVSWGDGCAQRNKPGVYTRLPLFRDWIKENTGV |  | 690 |  |  |  |  |  | 0.2
